Laboratory results as given in US20250114467A1 (SHANGHAI FUDAN ZHANGJIANG BIO PHARMACEUTICAL, published 2025).

T1: mouse DLL3 on overexpressing cells (plasmid pCMV3-mDLL3, MG58052-UT) (mouse, UniProt O88516 33-592)
T1 construct: whole, on cells
T1 sequence (looked up): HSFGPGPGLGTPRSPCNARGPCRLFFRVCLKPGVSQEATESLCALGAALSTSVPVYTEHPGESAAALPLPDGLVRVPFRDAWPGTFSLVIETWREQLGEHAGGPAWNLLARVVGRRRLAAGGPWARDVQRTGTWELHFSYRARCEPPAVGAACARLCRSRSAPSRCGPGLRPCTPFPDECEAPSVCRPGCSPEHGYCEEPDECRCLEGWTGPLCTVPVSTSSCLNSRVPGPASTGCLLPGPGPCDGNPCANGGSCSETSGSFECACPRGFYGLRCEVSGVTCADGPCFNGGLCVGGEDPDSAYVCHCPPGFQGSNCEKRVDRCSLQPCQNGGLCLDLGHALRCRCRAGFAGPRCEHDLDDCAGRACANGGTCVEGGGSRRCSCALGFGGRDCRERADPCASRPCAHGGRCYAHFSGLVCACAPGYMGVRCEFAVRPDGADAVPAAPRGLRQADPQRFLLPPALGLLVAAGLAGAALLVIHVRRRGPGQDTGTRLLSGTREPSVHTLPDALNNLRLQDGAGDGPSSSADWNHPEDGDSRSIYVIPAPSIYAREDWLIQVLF


Molecular target: T1, mouse DLL3 on overexpressing cells …
Experiment: flow cytometry on cells overexpressing mouse DLL3, APC goat anti-human IgG, MFI [left panel]
Experimental: After washing with 80 μl of PBST (0.1% Tween20) for five times, 25 μl of HRP-labeled goat anti-human secondary antibody (Jackson, 1:10000) was added to each well and incubated at room temperature for 1 hour, discard the supernatant, and the wells were then washed seven times with 80 μl of PBST (0.1% Tween20). After adding 25 μl of TMB chromogen solution for 10 minutes, the reaction was terminated with 2M HCl, and the absorbance value at 450 nm was measured with a Microplate reader (purchased from Biotek, Elx808). […] The binding abilities of the chimeric antibodies to these cells were determined by flow cytometry to assess the cross-reactivity of the antibodies with different species. […] The chimeric antibodies, FDA027, and FDA031 were pre-diluted to 50 μg/ml, and further diluted in a 4-fold gradient across 8 concentration points, with 200 μL of the antibodies to be detected of different concentrations added to each well and incubated on ice for 30 minutes. […] After washing with PBS four times, 100 μL PBS was added to each well to resuspend the cells, which were then analyzed using CytoFLEX (Beckman).

binding result	Binder
no binding (tested: 50 µg/ml)	ch15G2 (antibody, human IgG1, kappa, V domains shown, Chimeric: murine variable regions on human IgG1 heavy and kappa light constant regions; also called chimeric antibody 15G2) VH: EVQLQQSGPELEKPGASVRISCKASGYSFTDYNMHWVKQSNGKSLEWIGNIDPYYGGTNYNQKFEGKATLTVDKSSSTAYMQLKSLTSEDSAVYYCARGGNNYGDYWGQGTTLTVSS VL: DIQMTQSPASLAASVGETVTITCRASENIYYSLAWYQQKQGKSPQLLIFNANSLEDGVPSRFSGSGSGTQYSMKINSMQPEDTATYFCKQAYDVPWTFGGGTKLEIKR
no binding (tested: 50 µg/ml)	ch32E8 (antibody, human IgG1, kappa, V domains shown, Chimeric: murine variable regions on human IgG1 heavy and kappa light constant regions; also called chimeric antibody 32E8) VH: QVTLKESGPGILQPSQTLSLTCSFSGFSLSTSGMGVGWIRQPSGKGLEWLALIWWDDVKRYHPALKSRLTISKDTSSSQVFLKIASVDTADTATYYCARIAEVTGQVGLHYAMDYWGQGTSVTVSS VL: QTVLTQSPAIMSASLGERVTMTCTASSSVNSSSLHWYQQKPGSSPKLWIYTTSNLASGVPARFSGSGSGTSYSLTISSMEAEDAATYYCHQFHRSPFTFGSGTKLEIKR
